Measured values from article PMC5460766.

Experiments:
Assay in all cases: ITC
[1] = target: NDD(MlnE)+MlnKR6 (Bacillus amyloliquefaciens FZB42) (UniProt A7Z474)
[2] = target: NDD(MlnG)+MlnKR9 (Bacillus amyloliquefaciens FZB42) (UniProt A7Z476)
[3] = target: NDD(MlnD)+MlnKR4 (Bacillus amyloliquefaciens FZB42) (UniProt A7Z473)

MlnKS6+CDD(MlnD) (from UniProt A7Z473 1-2902) (domain or fragment)
Kd [1]: 800 nM

MlnDH9+CDD(MlnF) (from UniProt A7Z475 1-1903) (domain or fragment)
Kd [2]: 9000 nM

MlnDH4+CDD(MlnC) (from UniProt A7Z472 1-1590) (domain or fragment)
Kd [3]: 1800 nM
